The results in this text go back to US20110142840A1 (ONCOMED PHARMACEUTICALS, published 2011).

Assay [1] addresses T1, recombinant human MET PSI-IPT domains (human, UniProt P08581 516-932, limits assumed).
T1 construct: domain: PSI-IPT; also called PSI-IST (as printed once)
Nature of the assay: plate binding assay, 384-well plates coated with recombinant domains.

The target in assay [2] is T2, recombinant human MET extracellular domain (MET ECD) (human, UniProt P08581 25-932).
T2 construct: extracellular domain; also called full-length MET-ECD molecule
T2 sequence (P08581 25-932): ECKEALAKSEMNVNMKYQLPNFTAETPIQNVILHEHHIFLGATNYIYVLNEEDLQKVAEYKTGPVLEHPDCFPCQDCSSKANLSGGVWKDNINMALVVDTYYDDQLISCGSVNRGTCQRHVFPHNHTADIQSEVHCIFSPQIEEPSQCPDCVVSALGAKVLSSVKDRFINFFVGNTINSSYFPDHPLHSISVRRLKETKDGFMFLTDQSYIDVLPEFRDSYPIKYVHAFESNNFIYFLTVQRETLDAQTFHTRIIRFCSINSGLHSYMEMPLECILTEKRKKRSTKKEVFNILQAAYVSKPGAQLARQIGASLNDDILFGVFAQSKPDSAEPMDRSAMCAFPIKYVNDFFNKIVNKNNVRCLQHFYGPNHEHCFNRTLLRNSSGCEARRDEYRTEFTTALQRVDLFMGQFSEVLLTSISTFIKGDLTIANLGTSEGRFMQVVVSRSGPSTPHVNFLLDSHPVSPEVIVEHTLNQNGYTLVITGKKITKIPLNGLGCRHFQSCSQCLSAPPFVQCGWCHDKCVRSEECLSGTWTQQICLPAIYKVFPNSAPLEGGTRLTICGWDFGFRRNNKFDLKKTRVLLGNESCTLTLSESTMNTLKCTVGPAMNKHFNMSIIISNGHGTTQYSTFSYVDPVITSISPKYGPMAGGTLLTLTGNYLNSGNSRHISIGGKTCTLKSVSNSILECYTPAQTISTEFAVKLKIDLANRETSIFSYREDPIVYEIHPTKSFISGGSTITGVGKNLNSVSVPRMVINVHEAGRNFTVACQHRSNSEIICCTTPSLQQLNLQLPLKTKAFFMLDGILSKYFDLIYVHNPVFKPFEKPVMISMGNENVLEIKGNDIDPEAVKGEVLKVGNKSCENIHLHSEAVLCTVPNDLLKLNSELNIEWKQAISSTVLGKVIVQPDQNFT
In words: BIAcore 2000; MET ECD amine-coupled on CM5 chip, antibody injected at 100-1 nM, global fit.
Protocol: (§1) Fab and IgG affinities were determined using a BIAcore 2000 instrument. Briefly, MET ECD was immobilized on a CM5 chip using standard amine based chemistry (NHS/EDC). For each Fab and IgG, different concentrations (100-1 nM) were injected over the MET ECD surface and kinetic data were collected over time. The data was fit using the simultaneous global fit equation to yield affinity constants (KD) for each Fab and IgG.

Assay [3] addresses T3, human MET Receptor on cells (human, UniProt P08581 25-1390). In words: cell-based or functional assay.
The target in assay [4] is T4, recombinant human MET/Fc chimeric protein (R&D Systems) (human, UniProt P08581 25-932).
T4 construct: extracellular domain; Bought reagent; also called MET Receptor extracellular domain; not shown: Fc part (detected with anti-human Fc) and any linker of the bought chimera
T4 sequence (P08581 25-932, change not shown): as the sequence (P08581 25-932) above
Nature of the assay: HGF/MET blocking ELISA (Dm=IC50): antibody preincubated with MET/Fc, added to HGF-coated wells; unit from the legend of FIG. 2; FIG. 2A, B experiment. Background: An ELISA detects its analyte on a solid surface through an enzyme-linked reagent.

Assay [5] concerns the target T2, recombinant human MET extracellular …. Nature of the assay: BIAcore 2000; MET ECD amine-coupled on CM5 chip, antibody injected at 100-1 nM, global fit; Dimer, not IgG.
Protocol: as §1
Assay [6] concerns the target T4, recombinant human MET/Fc chimeric …. In words: HGF/MET blocking ELISA, experiment of Example 3; unit from the legend of FIG. 3; FIG. 3A experiment, antibody alone.
Protocol: (§2) After washing the wells once with 0.2% PBS/T, they were blocked with 5% PBS/milk for one hour. […] Washing was repeated as described above. Fifty microliters of substrate were added per well until a yellow color developed. The reaction was then stopped with 50 μL of 1 M H₂SO₄ and the absorbance at 450 nm determined with a standard plate reader.
For assay [7] the target is unchanged. Nature of the assay: HGF/MET blocking ELISA: antibody preincubated with MET/Fc, added to HGF-coated wells; unit from the legend of FIG. 1.
Protocol: as §2
The target in assay [8] is T5, recombinant human MET SEMA domain (human, UniProt P08581 27-515).
T5 construct: domain: SEMA; also called SEMA domain of MET-ECD
T5 sequence (P08581 27-515): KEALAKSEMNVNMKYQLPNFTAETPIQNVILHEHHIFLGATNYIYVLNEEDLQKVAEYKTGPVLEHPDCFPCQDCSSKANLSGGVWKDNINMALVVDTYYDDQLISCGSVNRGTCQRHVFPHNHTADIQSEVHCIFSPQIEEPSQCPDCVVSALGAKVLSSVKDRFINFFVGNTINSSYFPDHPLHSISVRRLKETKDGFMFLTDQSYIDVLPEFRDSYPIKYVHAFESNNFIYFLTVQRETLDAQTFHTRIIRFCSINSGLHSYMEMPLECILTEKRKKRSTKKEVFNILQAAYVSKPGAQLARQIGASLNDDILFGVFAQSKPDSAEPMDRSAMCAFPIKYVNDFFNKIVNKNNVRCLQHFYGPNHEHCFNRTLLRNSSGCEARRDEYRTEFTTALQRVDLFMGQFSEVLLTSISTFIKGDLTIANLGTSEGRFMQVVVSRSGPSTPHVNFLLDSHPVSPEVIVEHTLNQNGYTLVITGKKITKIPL
In words: plate binding assay, 384-well plates coated with recombinant domains.

In assay [9] the target is T3, human MET Receptor on cells. Nature of the assay: FACS on GTL-16 cells; AF647-R28 fixed at 360 nM, against AF647-R28 without R13.

T3 sequence (P08581 25-1390): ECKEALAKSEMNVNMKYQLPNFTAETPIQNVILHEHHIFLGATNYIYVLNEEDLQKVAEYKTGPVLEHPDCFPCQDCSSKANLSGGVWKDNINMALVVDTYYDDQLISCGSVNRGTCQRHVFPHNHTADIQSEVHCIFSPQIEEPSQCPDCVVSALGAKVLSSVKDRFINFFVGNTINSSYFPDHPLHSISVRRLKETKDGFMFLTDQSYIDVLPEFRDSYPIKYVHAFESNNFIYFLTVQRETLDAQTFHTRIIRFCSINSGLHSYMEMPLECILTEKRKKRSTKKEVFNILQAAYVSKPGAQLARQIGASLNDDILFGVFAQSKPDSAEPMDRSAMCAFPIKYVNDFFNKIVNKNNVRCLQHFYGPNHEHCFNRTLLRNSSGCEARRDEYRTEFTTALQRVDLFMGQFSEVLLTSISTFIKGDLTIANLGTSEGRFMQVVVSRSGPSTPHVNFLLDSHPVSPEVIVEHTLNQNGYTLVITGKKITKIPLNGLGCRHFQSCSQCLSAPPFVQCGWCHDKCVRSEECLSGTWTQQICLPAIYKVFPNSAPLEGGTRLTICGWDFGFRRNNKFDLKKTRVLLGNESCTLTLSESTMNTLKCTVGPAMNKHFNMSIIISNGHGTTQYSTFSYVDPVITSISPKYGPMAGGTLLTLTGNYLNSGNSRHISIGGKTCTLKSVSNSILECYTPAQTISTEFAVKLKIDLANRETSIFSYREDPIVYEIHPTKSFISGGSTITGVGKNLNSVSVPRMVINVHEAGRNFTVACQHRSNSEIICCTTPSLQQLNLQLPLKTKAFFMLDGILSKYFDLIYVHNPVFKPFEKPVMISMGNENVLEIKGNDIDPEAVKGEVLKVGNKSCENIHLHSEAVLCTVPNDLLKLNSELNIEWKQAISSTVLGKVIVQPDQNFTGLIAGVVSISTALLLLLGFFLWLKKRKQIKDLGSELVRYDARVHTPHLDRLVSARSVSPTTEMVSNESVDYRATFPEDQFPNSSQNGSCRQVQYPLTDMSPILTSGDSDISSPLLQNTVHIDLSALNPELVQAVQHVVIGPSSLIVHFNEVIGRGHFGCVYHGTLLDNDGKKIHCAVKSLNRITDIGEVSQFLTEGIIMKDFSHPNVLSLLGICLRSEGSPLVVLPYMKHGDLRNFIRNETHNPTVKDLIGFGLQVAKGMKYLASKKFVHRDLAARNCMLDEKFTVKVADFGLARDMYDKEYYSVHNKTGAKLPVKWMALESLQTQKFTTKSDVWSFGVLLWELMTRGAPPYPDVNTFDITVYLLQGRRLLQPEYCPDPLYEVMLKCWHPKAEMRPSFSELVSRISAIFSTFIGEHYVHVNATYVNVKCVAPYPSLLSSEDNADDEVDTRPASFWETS
T1 sequence (P08581 516-932 limits assumed): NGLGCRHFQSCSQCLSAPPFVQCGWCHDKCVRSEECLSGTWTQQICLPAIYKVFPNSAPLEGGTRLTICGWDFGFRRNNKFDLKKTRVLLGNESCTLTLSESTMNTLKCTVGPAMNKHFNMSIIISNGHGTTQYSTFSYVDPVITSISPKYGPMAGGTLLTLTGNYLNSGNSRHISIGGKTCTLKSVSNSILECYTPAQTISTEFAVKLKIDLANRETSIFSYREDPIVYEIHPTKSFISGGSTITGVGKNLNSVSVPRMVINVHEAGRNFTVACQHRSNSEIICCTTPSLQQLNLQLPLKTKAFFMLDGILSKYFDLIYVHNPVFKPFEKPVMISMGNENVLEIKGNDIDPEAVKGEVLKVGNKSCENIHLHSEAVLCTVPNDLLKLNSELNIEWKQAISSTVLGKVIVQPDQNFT

B1: 13-MET human IgG1 antibody (antibody, V domains shown)
VH: QVQLKESGPALVKPTQTLTLTCTFSGFSLSTSGMVVSWIRQPPGKALEWLAFISWDDDKYYSTSLKTRLTISKDTSKNQVVLTMTNMDPVDTATYYCAREPGRYGGYYFDYWGQGTLVTVSS
VL: DIQMTQSPSSLSASVGDRVTITCRASQTISHYLAWYQQKPGKAPKLLIYAASILQSGVPSRFSGSGSGTDFTLTISSLQPEDFAVYYCQQYSGFPVTFGQGTKVEIKR
notes: Fab variable regions combined with human constant regions to give a full human IgG1; ATCC deposit PTA-9148; also called 13-MET IgG; MET-13 IgG
On to B1, for which, in [1], the binding result is on record as “no binding”. In assay [2], the Kd amounted to 0.9 nM. Further, the “EC50 of antibody-dependent cellular cytotoxicity (ADCC) on GTL-16 cells” value in assay [3] came out at 479 nM.

B2: 9-MET (divalent dimer of two 13-MET Fabs linked via a helix-loop-helix motif) (other)
VH: QVQLKESGPALVKPTQTLTLTCTFSGFSLSTSGMVVSWIRQPPGKALEWLAFISWDDDKYYSTSLKTRLTISKDTSKNQVVLTMTNMDPVDTATYYCAREPGRYGGYYFDYWGQGTLVTVSS
VL: DIQMTQSPSSLSASVGDRVTITCRASQTISHYLAWYQQKPGKAPKLLIYAASILQSGVPSRFSGSGSGTDFTLTISSLQPEDFAVYYCQQYSGFPVTFGQGTKVEIKRT
notes: also called 9d; dimeric Fab-dHLX of Fab 13
Regarding B2, the IC50 in [4] was found to be 5.08 nM; in [6] it was 8.88 nM. In addition, the Kd in assay [5] came to 0.56 nM.

B3: 13-MET monovalent Fab (Fab, V domains shown)
VH: QVQLKESGPALVKPTQTLTLTCTFSGFSLSTSGMVVSWIRQPPGKALEWLAFISWDDDKYYSTSLKTRLTISKDTSKNQVVLTMTNMDPVDTATYYCAREPGRYGGYYFDYWGQGTLVTVSS
VL: DIQMTQSPSSLSASVGDRVTITCRASQTISHYLAWYQQKPGKAPKLLIYAASILQSGVPSRFSGSGSGTDFTLTISSLQPEDFAVYYCQQYSGFPVTFGQGTKVEIKR
notes: Monovalent human Fab from the Morphosys HuCAL GOLD Fab library; the Fab constant parts are not; also called Fab-13; R13
For the molecule B3, the IC50 in assay [7] came to 12.4 nM.

B4: 28-MET human IgG1 antibody (antibody, V domains shown)
VH: QVQLQESGPGLVKPGETLSLTCTVSGGSISGYYWSWIRQAPGKGLEWIGEIYYAGSTLYNPSLKGRVTISVDTSKNQFSLKLSSVTAEDTAVYYCARHYGLDWFGDTGMDVWGQGTLVTVSS
VL: DIELTQPPSVSVAPGQSITISCSGDNLGDKYVHWYQQKPGQAPVLVIYDDNERPSGIPERFSGSNSGNTATLTISGTQAEDEADYYCSAYGSHSGTVFGGGTKLTVLG
notes: Fab variable regions combined with human constant regions to give a full human IgG1; ATCC deposit PTA-9149; also called 28-MET IgG; MET-28 IgG
As to B4, the binding result in assay [1] and in assay [8] was “no binding” throughout. Further, the “fold increase of ΔMFI with 20 nM unlabeled R13” value in assay [9] turned out to be 2.6 fold. The Kd in assay [2] came out at 47.9 nM. Moreover, in assay [3], the “EC50 of antibody-dependent cellular cytotoxicity (ADCC) on GTL-16 cells” value was determined as 3770 nM.

B5: 19-MET (divalent dimer of two 28-MET Fabs linked via a helix-loop-helix motif) (other)
VH: QVQLQESGPGLVKPGETLSLTCTVSGGSISGYYWSWIRQAPGKGLEWIGEIYYAGSTLYNPSLKGRVTISVDTSKNQFSLKLSSVTAEDTAVYYCARHYGLDWFGDTGMDVWGQGTLVTVSS
VL: DIELTQPPSVSVAPGQSITISCSGDNLGDKYVHWYQQKPGQAPVLVIYDDNERPSGIPERFSGSNSGNTATLTISGTQAEDEADYYCSAYGSHSGTVFGGGTKLTVLG
notes: also called 19d; dimeric Fab-dHLX of Fab 28
Regarding B5, the figures for the IC50 in [4] and in assay [6] were 44.3 nM and 106 nM, respectively. Also, in [2], the Kd is 8.7 nM.

B6: 28-MET monovalent Fab (Fab, V domains shown)
VH: QVQLQESGPGLVKPGETLSLTCTVSGGSISGYYWSWIRQAPGKGLEWIGEIYYAGSTLYNPSLKGRVTISVDTSKNQFSLKLSSVTAEDTAVYYCARHYGLDWFGDTGMDVWGQGTLVTVSS
VL: DIELTQPPSVSVAPGQSITISCSGDNLGDKYVHWYQQKPGQAPVLVIYDDNERPSGIPERFSGSNSGNTATLTISGTQAEDEADYYCSAYGSHSGTVFGGGTKLTVLG
notes: Monovalent human Fab from the Morphosys HuCAL GOLD Fab library; the Fab constant parts are not; also called Fab-28; R28
In the case of B6, the half-maximal inhibitory concentration (IC50) in assay [7] was 36.1 nM. Besides, in assay [2], the Kd was found to be 49 nM.

As a reminder, the Kd is the free concentration of one partner at which half of the binding sites on the other are occupied at equilibrium, for simple one-to-one binding. In general, IC50 refers to the concentration that inhibits the measured activity by half.
